Measured values: PMC4951284
pKd: −log10 of the molar value.

Key:
[1] = biological target: VEGFR2 recombinant protein, intracellular domain (aa 789 to end) (UniProt P35968); assay: far-Western, overlay or dot blot; 0.5 to 8.0 ug VEGFR2 (aa 789 to end) on SDS-PAGE, transferred to PVDF; overlaid with V5-tagged L-FABP (1 ug/ml) for 12 hours; anti-V5 detection; Kd by non-linear regression (GraphPad Prism 5)
VEGFR2 (Homo sapiens) [2] = biological target: VEGFR2 (Homo sapiens) (UniProt P35968); assay: ITC; settings: cited from earlier work
VEGFR2 (Homo sapiens) [3] = biological target: VEGFR2 (Homo sapiens) (UniProt P35968); assay: SPR; settings: cited from earlier work

| pKd [1] | Substance | pKd (VEGFR2 (Homo sapiens) [2]) | pKd (VEGFR2 (Homo sapiens) [3]) |
| --- | --- | --- | --- |
| 9.60 | Liver fatty acid-binding protein (L-FABP), V5-tagged recombinant protein expressed in Hus cells (from UniProt P07148 1-127) (natural protein) |  |  |
|  | VEGF-A (from UniProt P15692) | 7.74 | 7.44 |
